What all share (experiment): peptide or protein array
The target in assay [1] is T1, Serotransferrin peptide (18-mer) (human).
T1 peptide: NLREGTCPEAPTDECKPV

The target in assay [2] is T2, SRA stem-loop–interacting RNA binding protein, mitochondrial peptide (18-mer) (human).
T2 peptide: VQVHTRRPKLPQTSDDEK

For assay [3], the target named is T3, Cathepsin B peptide (18-mer) (human).
T3 peptide: CGTFLGGPKPPQRVMFTE

The target in assay [4] is T4, Vigilin peptide (18-mer) (human).
T4 peptide: PTYKDAFPPLPEKAACLE

The target of assay [5] is T5, Eukaryotic translation initiation factor 2-a kinase 3 peptide (18-mer) (human).
T5 peptide: VRISEKFPSSPKALESVT

Assay [6] concerns the target T6, CDK5 and ABL1 enzyme substrate 1 peptide (18-mer) (human).
T6 peptide: GCIALAAPGTPAAGLAAG

The target of assay [7] is T7, Chromodomain helicase-DNA binding protein 3 peptide (18-mer) (human).
T7 peptide: YLNLSQEPAHPAMALHAR

Assay [8] deals with T8, Protein FAM134C peptide (18-mer) (human).
T8 peptide: ALVEVLGPYEPLLSRVQA

In assay [9] the target is T9, Calpain-2 catalytic subunit peptide (18-mer) (human).
T9 peptide: AGTLFQDPSFPAIPSALG

Assay [10] concerns the target T10, Paxillin-associated protein with ARF GAP activity 3 peptide (18-mer) (human).
T10 peptide: GISQIRPPPLPPQPPSRL

The target in assay [11] is T11, Large proline-rich protein BAT3 peptide (18-mer) (human).
T11 peptide: QTLGQQVPGFPTAPTRVV

The target in assay [12] is T12, Dynein heavy chain 6 peptide (18-mer) (human).
T12 peptide: EKERPPKPEAPWLPTATW

Assay [13] addresses T13, Protein Shroom 3 peptide (18-mer) (human).
T13 peptide: ASDSGRGPQRPDARLLRS

B1: GST-tagged RICS SH3 domain (domain or fragment, human, UniProt A7KAX9 262-320, looked up)
chain: GAAHVIKRYTARAPDELTLEVGDIVSVIDMPPKVLSTWWRGKHGFQVGLFPGHCVELIN
Consider B1, for which the “relative binding strength (% of the strongest interaction of this SH3 domain)” value in assay [1] was found to be 49%; in assay [2] it was 7%; in assay [3] it was 100%; in assay [4] it was 5%; in assay [5], 15%; in [6], 7%. The entries for the “relative binding strength (% of the strongest interaction of this SH3 domain)” value in [7], in assay [8] and in assay [9] were 88%, 85% and 49%, respectively.

B2: GST-tagged ARHGAP10 SH3 domain (domain or fragment, human, UniProt A1A4S6 731-786, looked up)
chain: RKARAVYPCEAEHSSELSFEIGAIFEDVQTSREPGWLEGTLNGKRGLIPQNYVKLL
Take B2: the “relative binding strength (% of the strongest interaction of this SH3 domain)” value was 100% in assay [10], 58% in [11], 95% in assay [12] and 37% in assay [13].

(Values after paper PMC3553496 (Science signaling, 2011).)
